Experimental data published in patent US20250025549A1 (NOVAVAX, published 2025).

Target: T1, human angiotensin-converting enzyme 2 precursor (hACE2), His-tagged (human, UniProt Q9BYF1 18-740)
T1 construct: also called His-tagged human ACE2; histidine-tagged hACE2
Experiment: bio-layer interferometry

T1 sequence (Q9BYF1 18-740 limits assumed): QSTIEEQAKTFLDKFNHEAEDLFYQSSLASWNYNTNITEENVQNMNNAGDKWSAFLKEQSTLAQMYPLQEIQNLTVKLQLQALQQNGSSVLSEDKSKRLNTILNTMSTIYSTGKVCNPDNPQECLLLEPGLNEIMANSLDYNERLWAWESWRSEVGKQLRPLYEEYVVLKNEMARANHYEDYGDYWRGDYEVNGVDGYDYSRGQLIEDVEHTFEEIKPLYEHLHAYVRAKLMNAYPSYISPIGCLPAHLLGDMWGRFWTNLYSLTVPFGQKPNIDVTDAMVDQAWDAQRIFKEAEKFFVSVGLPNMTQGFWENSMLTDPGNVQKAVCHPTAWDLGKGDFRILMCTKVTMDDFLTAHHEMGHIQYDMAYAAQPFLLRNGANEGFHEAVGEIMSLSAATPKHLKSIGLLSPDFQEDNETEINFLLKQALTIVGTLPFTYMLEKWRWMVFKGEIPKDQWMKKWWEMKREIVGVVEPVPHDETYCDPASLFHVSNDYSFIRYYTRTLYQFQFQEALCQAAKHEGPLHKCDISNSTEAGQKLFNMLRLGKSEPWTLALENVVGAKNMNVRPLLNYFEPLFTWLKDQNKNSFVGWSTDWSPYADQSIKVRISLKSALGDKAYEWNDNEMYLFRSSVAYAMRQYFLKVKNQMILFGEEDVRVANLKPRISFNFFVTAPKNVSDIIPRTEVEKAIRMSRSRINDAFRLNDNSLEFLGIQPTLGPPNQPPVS

B1: MERS S protein (other)
chain: YVDVGPDSVKSACIEVDIQQTFFDKTWPRPIDVSKADGIIYPQGRTYSNITITYQGLFPYQGDHGDMYVYSAGHATGTTPQKLFVANYSQDVKQFANGFVVRIGAAANSTGTVIISPSTSATIRKIYPAFMLGSSVGNFSDGKMGRFFNHTLVLLPDGCGTLLRAFYCILEPRSGNHCPAGNSYTSFATYHTPATDCSDGNYNRNASLNSFKEYFNLRNCTFMYTYNITEDEILEWFGITQTAQGVHLFSSRYVDLYGGNMFQFATLPVYDTIKYYSIIPHSIRSIQSDRKAWAAFYVYKLQPLTFLLDFSVDGYIRRAIDCGFNDLSQLHCSYESFDVESGVYSVSSFEAKPSGSVVEQAEGVECDFSPLLSGTPPQVYNFKRLVFTNCNYNLTKLLSLFSVNDFTCSQISPAAIASNCYSSLILDYFSYPLSMKSDLSVSSAGPISQFNYKQSFSNPTCLILATVPHNLTTITKPLKYSYINKCSRFLSDDRTEVPQLVNANQYSPCVSIVPSTVWEDGDYYRKQLSPLEGGGWLVASGSTVAMTEQLQMGFGITVQYGTDTNSVCPKLEFANDTKIASQLGNCVEYSLYGVSGRGVFQNCTAVGVRQQRFVYDAYQNLVGYYSDDGNYYCLRACVSVPVSVIYDKETKTHATLFGSVACEHISSTMSQYSRSTRSMLKRRDSTYGPLQTPVGCVLGLVNSSLFVEDCKLPLGQSLCALPDTPSTLTPRSVRSVPGEMRLASIAFNHPIQVDQLNSSYFKLSIPTNFSFGVTQEYIQTTIQKVTVDCKQYVCNGFQKCEQLLREYGQFCSKINQALHGANLRQDDSVRNLFASVKSSQSSPIIPGFGGDFNLTLLEPVSISTGSRSARSAIEDLLFDKVTIADPGYMQGYDDCMQQGPASARDLICAQYVAGYKVLPPLMDVNMEAAYTSSLLGSIAGVGWTAGLSSFAAIPFAQSIFYRLNGVGITQQVLSENQKLIANKFNQALGAMQTGFTTTNEAFHKVQDAVNNNAQALSKLASELSNTFGAISASIGDIIQRLDVLEQDAQIDRLINGRLTTLNAFVAQQLVRSESAALSAQLAKDKVNECVKAQSKRSGFCGQGTHIVSFVVNAPNGLYFMHVGYYPSNHIEVVSAYGLCDAANPTNCIAPVNGYFIKTNNTRIVDEWSYTGSSFYAPEPITSLNTKYVAPQVTYQNISTNLPPPLLGNSTGIDFQDELDEFFKNVSTSIPNFGSLTQINTTLLDLTYEMLSLQQVVKALNESYIDLKELGNYTYYNKWPWYIWLGFIAGLVALALCVFFILCCTGCGTNCMGKLKCNRCCDRYEEYDLEPHKVHVH
notes: also called MERS-CoV spike protein
B1: no binding.
